The source of these data is patent US20250320468A1, “New Microbial Diamine Oxidase Derived from Yarrowia Lipolytica for the Degradation of Biogenic Amines” (UNIVERSITÄT HOHENHEIM, priority 2021, published 2025).

Data set [1] concerns human diamine oxidase (DAO). The settings on record: cited from earlier work.
The test system of data set [2] is Arthrobacter crystallopoietes KAIT-B-007 histamine oxidase. The settings on record: cited from earlier work.
Data set [3] concerns the target T1, Yarrowia lipolytica PO1f diamine oxidase-1 (DAO-1), wild type, SEQ ID NO: 1 (Yarrowia lipolytica, UniProt Q6CGT2).
T1 sequence (Q6CGT2 1-671): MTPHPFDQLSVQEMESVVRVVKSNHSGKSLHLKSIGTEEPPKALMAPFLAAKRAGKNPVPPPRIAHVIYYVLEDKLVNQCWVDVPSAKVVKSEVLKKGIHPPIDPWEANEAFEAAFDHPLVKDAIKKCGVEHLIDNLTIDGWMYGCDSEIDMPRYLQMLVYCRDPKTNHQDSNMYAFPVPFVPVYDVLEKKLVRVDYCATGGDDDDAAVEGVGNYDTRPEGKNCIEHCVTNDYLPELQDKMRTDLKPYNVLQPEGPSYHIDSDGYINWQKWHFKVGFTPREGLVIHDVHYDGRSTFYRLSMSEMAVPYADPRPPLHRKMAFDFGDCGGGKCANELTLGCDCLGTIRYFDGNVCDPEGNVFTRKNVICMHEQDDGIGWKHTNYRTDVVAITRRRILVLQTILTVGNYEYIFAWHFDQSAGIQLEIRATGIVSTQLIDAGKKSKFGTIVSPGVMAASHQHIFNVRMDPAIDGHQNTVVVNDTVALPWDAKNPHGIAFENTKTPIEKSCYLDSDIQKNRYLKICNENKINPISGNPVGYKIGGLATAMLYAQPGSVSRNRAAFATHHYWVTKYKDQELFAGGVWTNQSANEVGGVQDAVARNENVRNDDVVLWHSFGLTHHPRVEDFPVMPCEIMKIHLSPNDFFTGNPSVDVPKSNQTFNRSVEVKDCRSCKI
Description: DAO-1 activity was determined with the DA-67 assay.
The DAO-1 activity was determined using a colorimetric DA-67 enzyme assay. […] Subsequently, 12 μL (266 units/mL) of horseradish peroxidase (Grade I) were added. The reaction was started by the addition of 25 μL DAO solution and incubated at 37° C. for 10 min and stirred at 750 rpm. The reaction was stopped by the addition of 50 μL sodium diethyldithiocarbamate (30 mM). After centrifugation (10,000 g for 3 min at 20° C.), the absorption was measured at 668 nm. […] Hydrogen peroxide (0.5 to 10 nmol/mL) was used for the calibration. The enzyme activity was calculated in nkat, whereby 1 nkat converts 1 nmol substrate/s at 37° C.
The DAO-1 activity was determined using the DA-67 assay. For unhydrolyzed conditions, the DA-67 reagent (50 μM) was prepared in SIF containing BSA, WPI, sodium-caseinate each at 35.6 g/L and 106.8 g/L sucrose (pH 6.8). […] The DAO-1 was desalted against SIF using PD MidiTrap G-25 columns.
For the hydrolyzed conditions, BSA, WPI, sodium-caseinate each at 16.67 g/L and 50 g/L sucrose were first incubated in SIF (with pancreatin) at 37° C. and 130 rpm for 90 min. […]
All experiments were done at least in duplicate and evaluated by determining the standard deviation with Excel. […] Enzyme kinetics were evaluated by nonlinear regression using the data analyzing software Sigmaplot 12.5 (Systat Software GmbH, Erkrath, Germany).

Data set [4] has as its system Aspergillus niger amine oxidase. The settings on record: cited from earlier work.
Data set [5] relates to porcine kidney diamine oxidase (DAO). The note with it: cited from earlier work.
Data set [6] concerns the target T1, Yarrowia lipolytica PO1f diamine oxidase-1 (DAO-1), wild type, SEQ ID NO: 1. In words: Michaelis-Menten kinetics of DAO-1 with histamine, DA-67 assay in PIPES buffer. The settings on record: PIPES buffer (25 mM; pH 7.2), 37° C. The class given is biochemical.
Description: DAO-1 activity determined with the DA-67 assay in PIPES buffer (25 mM; pH 7.2) at 37° C.
The DAO activity was determined using the colorimetric DA-67 enzyme assay, as known in the art. […] Subsequently, 24 μL (266 units/mL) of horseradish peroxidase (Grade I) were added. The reaction was started by the addition of 50 μL enzyme solution and incubated at 37° C. for 10 min and stirred at 750 rpm. The reaction was stopped by the addition of 50 μL sodium diethyldithiocarbamate (30 mM). After centrifugation (10,000 g for 3 min at 20° C.), the absorption was measured at 668 nm. […] Hydrogen peroxide (0.5 to 10 nmol/mL) was used for the calibration. The enzyme activity was calculated in nkat, whereby 1 nkat converts 1 nmol substrate/s at 37° C.
Kinetic investigations were done within the initial reaction velocity.
Data are presented as mean values with standard deviation. Enzyme kinetics were evaluated by nonlinear regression using the data analyzing software Sigmaplot 12.5 (Systat Software GmbH, Erkrath, Germany).
Data set [7] is described as follows: DAO activity of Y. lipolytica PO1f_axp_dao-2 cell extract versus wildtype extract. The format is biochemical. The protocol: (§1) The DAO activity was determined using the colorimetric DA-67 enzyme assay, as known in the art.
(§2) Y. lipolytica PO1f was identified as the owner of two putative DAOs using the BLAST program (https://blast.ncbi.nlm.nih.gov). […] Both genes were amplified from the genome of the Y. lipolytica strain PO1f and successfully integrated into the axp locus of the genome (integration efficiency of around 20%), resulting in the recombinant strains Y. lipolytica PO1f_axp_dao-1 and Y. lipolytica PO1f_axp_dao-2. The genes were integrated into the axp locus because it allowed efficient expression of the proteins desired with the chosen strategy for homologous recombinant integration, as known in the art. Gene expression was thereby conducted using the strong, constitutive promoter UAS1B8_TEF (136).

Data set [8] can be described thus: DAO activity of Y. lipolytica PO1f_axp_dao-2 cell extract versus wildtype extract, agmatine. The class given is biochemical. The method, then: as §1, §2
For data set [9] the following is noted: cited from earlier work.
For data set [10] the following is noted: substrates at 1 mM; cited from earlier work.
The conditions of data set [11]: simulated intestinal fluid; cited from earlier work.
The conditions of data set [12]: kinetic studies from the art; cited from earlier work.
The conditions of data set [13]: extracted and partially purified from pig kidney (heat treatment, salt precipitation, HIC), cited from earlier work.
For data set [14] the following is noted: cited from earlier work; for in vitro reduction of histamine: 150 mg/L (75 mg) histamine, 50 nkat (0.1 nkat/mL), 5 h.
Setting [15] is: read-out: Ki (substrate inhibition by histamine).

“Also recorded” adds a separate entry of the source. Like-named read-outs stand apart in the source and are kept apart here.

As to `NCCc1c[nH]cn1` [histamine], the Km – broadly, the substrate concentration at which the rate is half of its maximum – was 2.8 µM in data set [1], 500 µM in data set [2], 600 µM in [4] and 27 µM in data set [5]. The Ki was 280 µM in data set [1] (setting [15]) and 5710 µM in [5] (setting [15]). Further, the “substrate inhibition recognized for histamine concentrations” value in data set [3] (hydrolyzed food-matrix SIF 3), in data set [3] (unhydrolyzed food-matrix SIF 3) and in data set [6] was “greater than 12.5 mM” each time. Also, the “substrate inhibition by histamine concentrations” value in data set [5] (porcine kidney DAO, 56 mg/L (0.5 mM)) is more than 0.5 mM.

B1: DAO-2: second putative DAO from Y. lipolytica PO1f (Uniprot: A0A371BXN9), gene dao-2 SEQ ID NO: 3 (protein, listed as Yarrowia lipolytica)
chain: MHRLSQLATQTTAATITAGHPLDPLSPSEIEHAASIVKSQMRDSSPYRFNLITLIEPPKAELLAWEASPSSVAKPPRRAEVVLVVRGKKGVTEGRVCLTGSKVLSWSEIEGVQPILTVDDLQKVEEIVRQDPEVIKQCKLIGVDNMSQVYCDPWTIGYDERWGAERRLQQAFLYFRAHQDDSQYSHPLDFTPIYDATEQKVIFIDIPPVRRPLSKLKNSNFNPQDISKTTGYRDVKPIDVSQPEGVNFKMTGRIMEWQGFRFHVGFNYREGIVLSQISFNDHGNQRNMFHRLSLVEMVVPYGNPEHPHQRKHAFDLGEYGAGLMTNPLSLGCDCKGVIHYLDAHFSDAEGKPLTVPNAVCIHEEDNGLLFKHSDFRDEFQTSIVTRATKLILSQIFTAANYEYCVYWIFHQDGTIQLEIKLTGILNTFPCNPGEDLHGWGTEVYPGTNAHNHQHLFSLRIHPAIDSQLHPGNSVAMVDAERSPFPPGHPENLHGNGFRPKRTVFNNPIEAMTDYDGNTSRTWDFFNPKSINQYSKKPASYKLVSRECPPLLPQPGGLVWNRAGFARHHMHVVPYVDGQLYPAGRFVCQTSGKPSRGLPEWIEQCGEKANINDTDVVAYHTFGLTHFPAPEDFPLMPAEPMTLLLRPRNFFLQNPALDVPPSHARTTTEAQAASGAKVVSLTDKVSQLAFNKSCCSK
On to B1, for which, in [7] (recombinant Y. lipolytica PO1f_axp_dao-2 extract), the “enzyme activity towards histamine” value is reported as “no activity; also recorded: did not show enzyme activity”. In data set [7] (substrates histamine, putrescine, cadaverine, tyramine, spermidine, tryptamine), the “increase in DAO-activity versus wildtype cell extract” value is listed as “did not show an increase”. In addition, the activity with agmatine result in data set [8] (cell extract, shaking flask) is reported as “around 50 nkatAgmatine (14.5 mM)/LCulture”. Moreover, the “increase in activity versus wildtype cell extract” value in [8] (substrate agmatine) is reported as 5.5 fold.

B2: human DAO: human diamine oxidase (Uniprot: P19801), prior-art comparator (protein, UniProt P19801 20-751, looked up)
Diamine oxidase …: EPSPGTLPRKAGVFSDLSNQELKAVHSFLWSKKELRLQPSSTTTMAKNTVFLIEMLLPKKYHVLRFLDKGERHPVREARAVIFFGDQEHPNVTEFAVGPLPGPCYMRALSPRPGYQSSWASRPISTAEYALLYHTLQEATKPLHQFFLNTTGFSFQDCHDRCLAFTDVAPRGVASGQRRSWLIIQRYVEGYFLHPTGLELLVDHGSTDAGHWAVEQVWYNGKFYGSPEELARKYADGEVDVVVLEDPLPGGKGHDSTEEPPLFSSHKPRGDFPSPIHVSGPRLVQPHGPRFRLEGNAVLYGGWSFAFRLRSSSGLQVLNVHFGGERIAYEVSVQEAVALYGGHTPAGMQTKYLDVGWGLGSVTHELAPGIDCPETATFLDTFHYYDADDPVHYPRALCLFEMPTGVPLRRHFNSNFKGGFNFYAGLKGQVLVLRTTSTVYNYDYIWDFIFYPNGVMEAKMHATGYVHATFYTPEGLRHGTRLHTHLIGNIHTHLVHYRVDLDVAGTKNSFQTLQMKLENITNPWSPRHRVVQPTLEQTQYSWERQAAFRFKRKLPKYLLFTSPQENPWGHKRTYRLQIHSMADQVLPPGWQEEQAITWARYPLAVTKYRESELCSSSIYHQNDPWHPPVVFEQFLHNNENIENEDLVAWVTVGFLHIPHSEDIPNTATPGNSVGFLLRPFNFFPEDPSLASRDTVIVWPRDNGPNYVQRWIPEDRDCSMPPPFSYNGTYRPV
As to B2, the “pH of maximal DAO activity” value in data set [9] (putrescine as substrate, phosphate buffer, DAO from blood serum) is 7.5.

B3: porcine DAO: DAO extracted from porcine kidney (Uniprot: Q9TRC7), prior-art comparator (protein, UniProt Q9TRC7 25-755, looked up)
Diamine oxidase …: ERSPRTPGGKAGVFADLSAQELKAVHSFLWSQKELKLEPSGTLTMAKNSVFLIEMLLPKKQHVLKFLDKGHRRPVREARAVIFFGAQEQPNVTEFAVGPLPTPRYMRDLPPRPGHQVSWASRPISKAEYALLSHKLQEATQPLRQFFRRTTGSSFGDCHEQCLTFTDVAPRGLASGQRRTWFILQRQMPGYFLHPTGLELLVDHGSTNAQDWTVEQVWYNGKFYRSPEELAQKYNDGEVDVVILEDPLAKGKDGESLPEPALFSFYQPRGDFAVTMHGPHVVQPQGPRYSLEGNRVMYGGWSFAFRLRSSSGLQILDVHFGGERIAYEVSVQEAVALYGGHTPAGMQTKYIDVGWGLGSVTHELAPDIDCPETATFLDALHHYDADGPVLYPRALCLFEMPTGVPLRRHFNSNFSGGFNFYAGLKGQVLVLRTTSTVYNYDYIWDFIFYPNGVMEAKMHATGYVHATFYTPEGLRYGTRLHTHLIGNMHTHLVNYRVDLDVAGTTNSFQTLQMELENITNPWSPRHRLVQPTLKQTRYSRERQAAFRFGQPLPKYLLITSPKENPWGHTRSYRLQLHSMADQVLPPGWQEERAVTWARYPLAVTRYRESELSSSSIYNQNDPWDPPVVFEEFLRNNENIEDEDLVAWVTVGFLHIPHSEDIPNTATPGNSVGFLLRPFNFFPEDPALASRDLVVVWPLENGSTYAQRWIPEEDQSCLKPPPFSYNGSYRPV
As for B3, the “DAO activity with histamine compared to the maximal measured activity with putrescine” value in data set [10] is 19%. The half-life entry in [11] is “approximately 19 minutes”. For the same molecule, the “histamine concentration above which substrate inhibition occurs” value in data set [12] is recorded as “greater than 56 mg/L”. Besides, the “pH of maximal DAO activity” value in data set [9] (cadaverine as substrate, potassium phosphate buffer) is 7.4; in data set [9] (histamine as substrate, potassium phosphate buffer), 6.3. Further, the entries for the “specific DAO activity” value in data set [13] and in [13] (listed as DAO from porcine kidney) were 81 nkat/gProtein and 81±1 nkat/gProtein, respectively. For the same molecule, the “in vitro reduction of histamine” value in data set [14] was “Around 90%”; in data set [14] (listed as free porcine DAO), “about 90%”. For the same molecule, the “DAO activity required for the degradation of food-relevant histamine (75 mg)” value in data set [14] (within 5 h under in vitro conditions, about 90% reduction) is listed as 50 nkat.
